Reference: article PMC10397247
Blank lines part the entries; values can stand above or below the binder they belong to.

How the values were obtained:
[1] = molecular target: T1, 4H1369-bN; assay: two-hybrid library CCNG1;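 also: natural log of median RNA to DNA barcode read ratio; higher means stronger binding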
T1 chain: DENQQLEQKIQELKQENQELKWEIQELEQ

[2] = molecular target: T2, 4H1446-bN; assay: two-hybrid library CCNG1;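 also: natural log of median RNA to DNA barcode read ratio; higher means stronger binding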
T2 chain: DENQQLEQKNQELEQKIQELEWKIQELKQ

[3] = molecular target: T3, 4H1845-bN; assay: two-hybrid library CCNG1;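 also: natural log of median RNA to DNA barcode read ratio; higher means stronger binding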
T3 chain: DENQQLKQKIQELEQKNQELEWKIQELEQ

[4] = molecular target: T4, 4H2162-bA; assay: two-hybrid library CCNG1;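 also: natural log of median RNA to DNA barcode read ratio; higher means stronger binding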
T4 chain: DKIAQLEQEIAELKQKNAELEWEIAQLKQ

[5] = molecular target: T5, 4H2576-bN; assay: two-hybrid library CCNG1;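 also: natural log of median RNA to DNA barcode read ratio; higher means stronger binding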
T5 chain: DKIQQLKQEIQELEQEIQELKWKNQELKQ

[6] = molecular target: T6, 4H2610-bN; assay: two-hybrid library CCNG1;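 also: natural log of median RNA to DNA barcode read ratio; higher means stronger binding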
T6 chain: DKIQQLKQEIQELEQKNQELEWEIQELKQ

[7] = molecular target: T7, 4H2667-bN; assay: two-hybrid library CCNG1
T7 chain: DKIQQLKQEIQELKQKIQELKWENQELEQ

[8] = molecular target: T8, 4H2697-bN; assay: two-hybrid library CCNG1
T8 chain: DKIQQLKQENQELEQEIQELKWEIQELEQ

[9] = molecular target: T9, 4H3189-bN; assay: two-hybrid library CCNG1
T9 chain: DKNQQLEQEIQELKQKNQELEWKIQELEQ

[10] = molecular target: T10, 4H331-bN; assay: two-hybrid library CCNG1
T10 chain: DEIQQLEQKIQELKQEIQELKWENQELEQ

[11] = molecular target: T11, 4H3606-bN; assay: two-hybrid library CCNG1
T11 chain: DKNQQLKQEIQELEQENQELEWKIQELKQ

[12] = molecular target: T12, 4H370-bN; assay: two-hybrid library CCNG1
T12 chain: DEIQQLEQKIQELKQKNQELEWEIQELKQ

[13] = molecular target: T13, 4H3782-bN; assay: two-hybrid library CCNG1
T13 chain: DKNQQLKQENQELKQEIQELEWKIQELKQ

[14] = molecular target: T14, 4H3843-bN; assay: two-hybrid library CCNG1
T14 chain: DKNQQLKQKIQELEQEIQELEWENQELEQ

[15] = molecular target: T15, 4H4001-bN; assay: two-hybrid library CCNG1
T15 chain: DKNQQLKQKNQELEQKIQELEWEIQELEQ

[16] = molecular target: T16, 4H462-bN; assay: two-hybrid library CCNG1
T16 chain: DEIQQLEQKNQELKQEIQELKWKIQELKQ

[17] = molecular target: T17, 4H568-bN; assay: two-hybrid library CCNG1
T17 chain: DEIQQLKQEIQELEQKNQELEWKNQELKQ

[18] = molecular target: T18, 4H607-bN; assay: two-hybrid library CCNG1
T18 chain: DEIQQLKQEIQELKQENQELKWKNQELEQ

[19] = molecular target: T19, 4H687-bN; assay: two-hybrid library CCNG1
T19 chain: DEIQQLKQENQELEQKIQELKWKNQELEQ

[20] = molecular target: T20, 4H72-bN; assay: two-hybrid library CCNG1
T20 chain: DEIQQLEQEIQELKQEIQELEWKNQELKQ

[21] = molecular target: T21, 4H797-bN; assay: two-hybrid library CCNG1
T21 chain: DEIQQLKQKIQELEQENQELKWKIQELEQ

[22] = molecular target: T22, 4H883-bN; assay: two-hybrid library CCNG1
T22 chain: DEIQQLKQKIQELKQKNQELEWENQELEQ

[23] = molecular target: T23, 4H918-bN; assay: two-hybrid library CCNG1
T23 chain: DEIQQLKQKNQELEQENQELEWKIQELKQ

[24] = molecular target: T24, 4H953-bN; assay: two-hybrid library CCNG1
T24 chain: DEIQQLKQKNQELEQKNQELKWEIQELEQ

[25] = molecular target: T25, 4H967-bN; assay: two-hybrid library CCNG1
T25 chain: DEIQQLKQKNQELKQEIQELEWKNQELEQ

[26] = molecular target: T26, 4H687-bH; assay: two-hybrid library CCNG1
T26 chain: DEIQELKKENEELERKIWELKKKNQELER

[27] = molecular target: T27, 4H717-bH; assay: two-hybrid library CCNG1
T27 chain: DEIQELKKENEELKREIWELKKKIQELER

[28] = molecular target: T28, 4H72-bH; assay: two-hybrid library CCNG1
T28 chain: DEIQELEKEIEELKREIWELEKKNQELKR

[29] = molecular target: T29, 4H754-bH; assay: two-hybrid library CCNG1
T29 chain: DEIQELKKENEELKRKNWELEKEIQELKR

[30] = molecular target: T30, 4H797-bH; assay: two-hybrid library CCNG1
T30 chain: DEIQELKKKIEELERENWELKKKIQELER

[31] = molecular target: T31, 4H883-bH; assay: two-hybrid library CCNG1
T31 chain: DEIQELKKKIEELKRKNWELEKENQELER

[32] = molecular target: T32, 4H908-bH; assay: two-hybrid library CCNG1
T32 chain: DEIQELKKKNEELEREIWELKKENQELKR

[33] = molecular target: T33, 4H918-bH; assay: two-hybrid library CCNG1
T33 chain: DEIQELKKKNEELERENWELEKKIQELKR

[34] = molecular target: T34, 4H953-bH; assay: two-hybrid library CCNG1
T34 chain: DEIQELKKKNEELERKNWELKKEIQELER

[35] = molecular target: T35, 4H967-bH; assay: two-hybrid library CCNG1
T35 chain: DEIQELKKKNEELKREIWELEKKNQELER

[36] = molecular target: T36, O10-bH; assay: two-hybrid library CCNG1
T36 chain: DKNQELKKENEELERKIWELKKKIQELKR

[37] = molecular target: T37, 4H1738-AA; assay: two-hybrid library CCmax
T37 chain: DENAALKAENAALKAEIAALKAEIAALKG

[38] = molecular target: T38, 4H2219-AA; assay: two-hybrid library CCmax; settings: mean of both orientations
T38 chain: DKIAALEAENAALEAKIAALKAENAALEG

[39] = molecular target: T39, 4H249-AA; assay: two-hybrid library CCmax; settings: mean of both orientations
T39 chain: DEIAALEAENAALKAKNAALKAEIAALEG

[40] = molecular target: T40, 4H2504-AA; assay: two-hybrid library CCmax
T40 chain: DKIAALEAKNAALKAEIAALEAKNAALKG

[41] = molecular target: T41, 4H2592-AA; assay: two-hybrid library CCmax; settings: mean of both orientations
T41 chain: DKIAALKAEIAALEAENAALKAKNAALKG

[42] = molecular target: T42, 4H2611-AA; assay: two-hybrid library CCmax; settings: mean of both orientations
T42 chain: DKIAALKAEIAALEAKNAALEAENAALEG

[43] = molecular target: T43, 4H2774-AA; assay: two-hybrid library CCmax; settings: mean of both orientations
T43 chain: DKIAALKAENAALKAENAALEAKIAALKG

[44] = molecular target: T44, 4H3001-AA; assay: two-hybrid library CCmax; settings: mean of both orientations
T44 chain: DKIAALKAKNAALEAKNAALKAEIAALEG

[45] = molecular target: T45, 4H3340-AA; assay: two-hybrid library CCmax; settings: mean of both orientations
T45 chain: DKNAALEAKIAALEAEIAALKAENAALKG

[46] = molecular target: T46, 4H3381-AA; assay: two-hybrid library CCmax; settings: mean of both orientations
T46 chain: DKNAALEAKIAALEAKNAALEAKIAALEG

[47] = molecular target: T47, 4H347-AA; assay: two-hybrid library CCmax; settings: mean of both orientations
T47 chain: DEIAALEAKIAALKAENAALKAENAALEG

[48] = molecular target: T48, 4H3493-AA; assay: two-hybrid library CCmax; settings: mean of both orientations
T48 chain: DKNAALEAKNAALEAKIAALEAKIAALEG

[49] = molecular target: T49, 4H376-AA; assay: two-hybrid library CCmax; settings: mean of both orientations
T49 chain: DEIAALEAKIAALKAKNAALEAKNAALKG

[50] = molecular target: T50, 4H406-AA; assay: two-hybrid library CCmax; settings: mean of both orientations
T50 chain: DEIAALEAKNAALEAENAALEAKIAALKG

[51] = molecular target: T51, 4H688-AA; assay: two-hybrid library CCmax; settings: mean of both orientations
T51 chain: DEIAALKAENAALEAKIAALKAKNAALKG

[52] = molecular target: T52, 4H963-AA; assay: two-hybrid library CCmax; settings: mean of both orientations
T52 chain: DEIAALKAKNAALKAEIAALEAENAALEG

interaction score [1]: -0.802
interaction score [2]: -2.34
interaction score [3]: -1.4
interaction score [4]: -0.463
interaction score [5]: -0.023
interaction score [6]: -0.97
interaction score [7]: -1.23
interaction score [8]: -0.852
interaction score [9]: -0.697
interaction score [10]: -1.16
interaction score [11]: 0.215
interaction score [12]: -1.79
interaction score [13]: -1.06
interaction score [14]: -1.02
interaction score [15]: -0.815
interaction score [16]: -1.07
interaction score [17]: -1.26
interaction score [18]: -0.655
interaction score [19]: -1.7
interaction score [20]: -1.26
interaction score [21]: -1.65
interaction score [22]: -1.19
interaction score [23]: -0.868
interaction score [24]: -1.2
interaction score [25]: -0.997
Binder: DENQQLEQKIQELKQENQELKWEIQELEQ [4H1369-bN]

interaction score [26]: 0
interaction score [27]: -0.0944
interaction score [28]: 0.182
interaction score [29]: -0.221
interaction score [30]: -0.897
interaction score [31]: 0.0397
interaction score [32]: -0.414
interaction score [33]: -0.146
interaction score [34]: -0.5
interaction score [35]: 1.63
interaction score [36]: -0.602
Binder: DEIQELKKENEELERKIWELKKKNQELER [4H687-bH]

interaction score [37]: 1.65
interaction score [38]: -1.76
interaction score [39]: -1.2
interaction score [40]: -1.96
interaction score [41]: -1.14
interaction score [42]: -1.52
interaction score [43]: -1.15
interaction score [44]: -1.39
interaction score [45]: -1.31
interaction score [46]: -1.45
interaction score [47]: -1.67
interaction score [48]: -1.11
interaction score [49]: -1.75
interaction score [50]: -1.49
interaction score [51]: -1.24
interaction score [52]: -1.8
Binder: DENAALKAENAALKAEIAALKAEIAALKG [4H1738-AA]
